Test results: article PMC5123862

How the values were obtained:
[1] = system: DNA polymerase delta (pol δ), exonuclease-deficient;Cy5-PCNA (human;human); assay: FRET; conditions: 3'-biotin (Neutravidin bound); 25 mM TrisOAc pH 7.7, 10 mM Mg(OAc)2, 125 mM KOAc, 0.1 mg/ml BSA, 1 mM DTT, ionic strength adjusted to 200 mM with KOAc, room temperature; cited from earlier work
[2] = system: DNA polymerase eta (pol η);Cy5-PCNA (human;human); assay: FRET; conditions: pol η titrated onto Cy5-PCNA loaded by RFC (100 nM each), 1 mM ATP; 3'-biotin (Neutravidin bound); 25 mM TrisOAc pH 7.7, 10 mM Mg(OAc)2, 125 mM KOAc, 0.1 mg/ml BSA, 1 mM DTT, ionic strength adjusted to 200 mM with KOAc, room temperature
[3] = target: Wild-type PCNA (human) (human) (UniProt P12004)
Sequence of Wild-type PCNA (human) (human) (P12004 whole entry): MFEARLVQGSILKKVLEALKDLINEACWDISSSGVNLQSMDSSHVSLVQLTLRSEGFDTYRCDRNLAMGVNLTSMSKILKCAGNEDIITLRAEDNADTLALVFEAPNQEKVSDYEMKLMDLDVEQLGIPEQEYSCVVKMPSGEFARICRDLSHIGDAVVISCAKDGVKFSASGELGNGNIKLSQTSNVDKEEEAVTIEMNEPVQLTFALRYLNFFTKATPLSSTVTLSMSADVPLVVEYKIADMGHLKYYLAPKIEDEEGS

[4] = system: DNA polymerase delta (pol δ), exonuclease-deficient (human); assay: fluorescence anisotropy; conditions: 10 mM Mg2+; estimated from partial binding curve, single measurements; 25 mM TrisOAc pH 7.7, 10 mM Mg(OAc)2, 125 mM KOAc, 0.1 mg/ml BSA, 1 mM DTT, ionic strength adjusted to 200 mM with KOAc, room temperature
[5] = system: DNA polymerase eta (pol η) (human); assay: fluorescence anisotropy; conditions: 10 mM Mg2+; 25 mM TrisOAc pH 7.7, 10 mM Mg(OAc)2, 125 mM KOAc, 0.1 mg/ml BSA, 1 mM DTT, ionic strength adjusted to 200 mM with KOAc, room temperature
[6] = target: Cy3-pol η (human DNA polymerase eta, full length, N-terminally labeled with Cy3) (human) (UniProt Q9Y253); assay: FRET or BRET; competitive inhibition: pre-assembled Cy3-Pol η•Cy5-PCNA complex (200 nM Cy3-Pol η, 20 nM Cy5-PCNA) titrated with unlabeled competitor (PCNA, (Ub)3-PCNA or pol η, 0-5 μM); dose-response model, Ki from IC50 by the Munson-Rodbard solution; room temperature; replication assay buffer, ionic strength 200 mM
Sequence of Cy3-pol η (human DNA polymerase eta, full length, N-terminally labeled with Cy3) (human) (Q9Y253 whole entry): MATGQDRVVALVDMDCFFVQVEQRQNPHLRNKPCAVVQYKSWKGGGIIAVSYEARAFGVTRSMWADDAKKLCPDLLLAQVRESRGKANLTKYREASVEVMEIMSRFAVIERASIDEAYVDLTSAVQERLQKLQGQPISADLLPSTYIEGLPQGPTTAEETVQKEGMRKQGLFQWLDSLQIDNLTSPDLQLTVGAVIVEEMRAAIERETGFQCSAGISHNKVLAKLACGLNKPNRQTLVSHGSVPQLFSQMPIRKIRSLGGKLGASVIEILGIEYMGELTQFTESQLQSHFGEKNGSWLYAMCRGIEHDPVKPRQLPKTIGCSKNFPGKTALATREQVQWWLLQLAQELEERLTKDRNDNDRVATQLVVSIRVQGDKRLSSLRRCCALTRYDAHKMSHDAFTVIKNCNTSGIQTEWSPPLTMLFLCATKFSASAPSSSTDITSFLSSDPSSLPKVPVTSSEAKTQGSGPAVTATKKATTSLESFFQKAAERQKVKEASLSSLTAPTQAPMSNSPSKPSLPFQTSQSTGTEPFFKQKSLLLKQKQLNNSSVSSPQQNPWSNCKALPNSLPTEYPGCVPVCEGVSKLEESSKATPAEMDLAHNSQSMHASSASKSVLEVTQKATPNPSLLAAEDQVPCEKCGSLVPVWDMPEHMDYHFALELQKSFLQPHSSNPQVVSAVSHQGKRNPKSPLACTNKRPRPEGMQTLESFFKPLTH

## Forked Cy3-P/T DNA
[1]
  Kd: < 10 nM
[2]
  Kd: 28 nM

## Exonuclease-deficient human DNA polymerase delta (D402A in the catalytic POLD1 subunit) (from UniProt P28340 1-1107) (complex)
[3]
  probability of insertion (Pi) of pol δ in single turnover primer extension on TT P/T DNA in the presence of PCNA (plateau i = 15 to i = 25); no DNA synthesis without PCNA: 0.999

## FLUOR-P/T DNA
[4]
  Kd: 537 nM
[5]
  Kd: 29.7 nM

## Monoubiquitinated PCNA ((Ub)3-PCNA): a single ubiquitin moiety on K164 of each monomer within a homotrimeric clamp ring (from UniProt P12004 1-261; P0CG48 1-76) (complex)
[6]
  Ki: 119 nM
